Results from patent US20250263448A1.

Assays:
a native host protein [1] = assay: Kd determination, method not stated; reference wild type PmSLP-1 (SEQ ID NO 2)
a native host protein [2] = assay: Kd determination, method not stated

Substance | factor by which the Kd exceeds the Kd of the native non-modified PmSLP (a native host protein [1]) | Kd (a native host protein [2])
modified PmSLP-1 having SEQ. ID NO: 65 (V214D mutation) | > 500 fold | < 2000 nM
modified PmSLP-1 having SEQ. ID NO: 67 (E240A mutation) | > 500 fold | < 2000 nM
wild type PmSLP-1 protein (SEQ. ID NO: 2) |  | 30 nM
